# Test results reported in paper PMC4756836 (Nucleic Acids Research, 2015).
# B1: yeast mitochondrial threonyl-tRNA synthetase MST1 (enzyme, S. cerevisiae)
# chain: QDLFMTDPLSPGSMFFLPNGAKIFNKLIEFMKLQQKFKFGFNEVVTPLIYKKTLWEKSGHWENYADDMFKVETTDEEKEEYGLKPMNCPGHCLIFGKKDRSYNELPLRFSDFSPLHRNEASGALSGLTRLRKFHQDDGHIFCTPSQVKSEIFNSLKLIDIVYNKIFPFVKGGSGAESNYFINFSTRPDHFIGDLKVWNHAEQVLKEILEESGKPWKLNPGDGAFYGPKLDIMVTDHLRKTHQVATIQLDFQLPERFDLKFKDQDNSYKRPIMIHRATFGSIERFMALLIDSNEGRWPFWLNPYQAVIIPVNTKNVQQLDMCTALQKKLRNELEADDMEPVPLNDWHFNVDLDIRNEPVGYRIKSAILKNYSYLIIVGDEEVQLQKYNIRERDNRKSFEKLTMSQIWEKFIELEKNYK
# Molecular target: the molecule itself
# Assay: crystal structure
protein,measurement,value
B1,stoichiometry N,2
